The text below walks through data of FireProtDB (doi:10.1016/j.bpj.2010.04.076).

The conditions of this series: Bacillus subtilis (strain 168), pH 7, CD, transition: 2, reversible: yes, whole UniProt chain shown.

B1: Adenylate kinase wild type, P16304 (protein)
chain: MNLVLMGLPGAGKGTQGERIVEDYGIPHISTGDMFRAAMKEETPLGLEAKSYIDKGELVPDEVTIGIVKERLGKDDCERGFLLDGFPRTVAQAEALEEILEEYGKPIDYVINIEVDKDVLMERLTGRRICSVCGTTYHLVFNPPKTPGICDKDGGELYQRADDNEETVSKRLEVNMKQTQPLLDFYSEKGYLANVNGQQDIQDVYADVKDLLGGLKK
In general, Tm refers to the temperature at which the thermal transition is half complete. For the protein B1, the unfolding free energy (20 °C, GdnHCl, Phosphate buffer 10mM) turned out to be 3.34 kcal/mol. Also, the Tm (Thermal, KH2PO4 10mM) stood at 48.4 °C.
